Data taken from patent publication US20250262210A1 (TRUSTEES OF COLUMBIA UNIVERSITY IN THE CITY OF NEW YORK, published 2025).

Columns and labels:
Experiment in all cases: IP/MS, LZTR1 wild type-FLAG, U87
[1] = target: T1, CC2D1A (human, UniProt Q6P1N0 1-951, limits assumed)
T1 sequence (looked up): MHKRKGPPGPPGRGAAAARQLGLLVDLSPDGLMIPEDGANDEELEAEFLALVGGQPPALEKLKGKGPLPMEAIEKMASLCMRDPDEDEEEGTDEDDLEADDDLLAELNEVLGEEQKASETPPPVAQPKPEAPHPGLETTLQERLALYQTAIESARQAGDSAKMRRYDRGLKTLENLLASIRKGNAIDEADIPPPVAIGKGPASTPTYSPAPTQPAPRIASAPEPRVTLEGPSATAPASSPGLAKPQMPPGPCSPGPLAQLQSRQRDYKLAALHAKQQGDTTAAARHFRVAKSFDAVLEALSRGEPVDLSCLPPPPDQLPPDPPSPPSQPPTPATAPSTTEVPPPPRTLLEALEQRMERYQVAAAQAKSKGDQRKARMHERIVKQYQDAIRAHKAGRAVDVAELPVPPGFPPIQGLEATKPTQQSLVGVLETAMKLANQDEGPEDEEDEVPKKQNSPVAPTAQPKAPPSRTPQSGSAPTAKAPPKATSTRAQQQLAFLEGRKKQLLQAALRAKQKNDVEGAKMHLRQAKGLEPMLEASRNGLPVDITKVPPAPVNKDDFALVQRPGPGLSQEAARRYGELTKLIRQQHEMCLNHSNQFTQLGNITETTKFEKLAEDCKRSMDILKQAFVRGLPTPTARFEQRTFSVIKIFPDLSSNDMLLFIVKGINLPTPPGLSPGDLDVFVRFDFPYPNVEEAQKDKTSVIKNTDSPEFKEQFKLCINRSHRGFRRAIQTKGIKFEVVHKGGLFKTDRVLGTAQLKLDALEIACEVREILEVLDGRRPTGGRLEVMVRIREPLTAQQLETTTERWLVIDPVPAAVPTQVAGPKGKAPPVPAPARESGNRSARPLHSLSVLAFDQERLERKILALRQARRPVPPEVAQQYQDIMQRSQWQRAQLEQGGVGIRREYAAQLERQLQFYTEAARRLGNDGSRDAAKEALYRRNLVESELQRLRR
Procedure, shortened: (§1)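 Gel slices were reduced with 5 mM DTT, alkylated with 11 mM IAA and digested overnight at 37° C. with trypsin. Peptides were analysed on an Orbitrap Fusion Tribrid by LC-MS/MS.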

[2] = target: T2, ELP1 (human, UniProt O95163 1-1332)
T2 sequence (looked up): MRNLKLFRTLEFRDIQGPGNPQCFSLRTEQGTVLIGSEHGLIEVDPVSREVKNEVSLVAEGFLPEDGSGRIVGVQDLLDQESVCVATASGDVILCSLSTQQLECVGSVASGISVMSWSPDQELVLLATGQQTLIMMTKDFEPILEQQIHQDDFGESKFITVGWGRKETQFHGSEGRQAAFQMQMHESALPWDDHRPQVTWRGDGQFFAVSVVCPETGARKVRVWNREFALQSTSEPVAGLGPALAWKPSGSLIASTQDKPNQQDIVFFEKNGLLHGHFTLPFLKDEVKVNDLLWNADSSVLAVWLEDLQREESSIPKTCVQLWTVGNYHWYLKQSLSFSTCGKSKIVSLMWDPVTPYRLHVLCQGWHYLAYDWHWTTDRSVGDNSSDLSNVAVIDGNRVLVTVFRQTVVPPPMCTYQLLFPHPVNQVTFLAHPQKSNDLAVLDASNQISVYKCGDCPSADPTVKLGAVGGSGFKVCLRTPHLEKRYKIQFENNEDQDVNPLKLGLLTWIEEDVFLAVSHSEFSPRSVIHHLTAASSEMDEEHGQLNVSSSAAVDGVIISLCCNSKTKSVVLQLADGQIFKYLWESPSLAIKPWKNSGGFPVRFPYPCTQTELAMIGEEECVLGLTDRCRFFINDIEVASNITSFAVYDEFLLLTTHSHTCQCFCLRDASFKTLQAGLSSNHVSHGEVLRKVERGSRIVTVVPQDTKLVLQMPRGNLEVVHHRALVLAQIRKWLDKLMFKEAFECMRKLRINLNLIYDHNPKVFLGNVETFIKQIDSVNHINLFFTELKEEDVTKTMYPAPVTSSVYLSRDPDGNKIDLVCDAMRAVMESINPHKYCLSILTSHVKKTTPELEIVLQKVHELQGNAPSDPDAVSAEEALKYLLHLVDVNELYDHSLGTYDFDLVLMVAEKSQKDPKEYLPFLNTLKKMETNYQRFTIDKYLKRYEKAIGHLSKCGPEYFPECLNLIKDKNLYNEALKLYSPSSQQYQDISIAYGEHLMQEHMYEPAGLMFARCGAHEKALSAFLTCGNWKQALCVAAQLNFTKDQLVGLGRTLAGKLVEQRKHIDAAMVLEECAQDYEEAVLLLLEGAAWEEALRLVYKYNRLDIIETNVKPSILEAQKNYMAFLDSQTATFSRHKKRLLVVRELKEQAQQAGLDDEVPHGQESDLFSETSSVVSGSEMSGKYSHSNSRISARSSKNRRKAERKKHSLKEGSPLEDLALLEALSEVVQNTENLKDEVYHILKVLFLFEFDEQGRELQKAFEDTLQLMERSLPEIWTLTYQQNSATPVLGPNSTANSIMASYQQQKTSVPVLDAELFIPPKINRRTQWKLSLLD
Procedure, shortened: as §1

[3] = target: DPP9 (human, UniProt Q86TI2 2-863, limits assumed)
Sequence of DPP9 (Q86TI2 2-863 limits assumed): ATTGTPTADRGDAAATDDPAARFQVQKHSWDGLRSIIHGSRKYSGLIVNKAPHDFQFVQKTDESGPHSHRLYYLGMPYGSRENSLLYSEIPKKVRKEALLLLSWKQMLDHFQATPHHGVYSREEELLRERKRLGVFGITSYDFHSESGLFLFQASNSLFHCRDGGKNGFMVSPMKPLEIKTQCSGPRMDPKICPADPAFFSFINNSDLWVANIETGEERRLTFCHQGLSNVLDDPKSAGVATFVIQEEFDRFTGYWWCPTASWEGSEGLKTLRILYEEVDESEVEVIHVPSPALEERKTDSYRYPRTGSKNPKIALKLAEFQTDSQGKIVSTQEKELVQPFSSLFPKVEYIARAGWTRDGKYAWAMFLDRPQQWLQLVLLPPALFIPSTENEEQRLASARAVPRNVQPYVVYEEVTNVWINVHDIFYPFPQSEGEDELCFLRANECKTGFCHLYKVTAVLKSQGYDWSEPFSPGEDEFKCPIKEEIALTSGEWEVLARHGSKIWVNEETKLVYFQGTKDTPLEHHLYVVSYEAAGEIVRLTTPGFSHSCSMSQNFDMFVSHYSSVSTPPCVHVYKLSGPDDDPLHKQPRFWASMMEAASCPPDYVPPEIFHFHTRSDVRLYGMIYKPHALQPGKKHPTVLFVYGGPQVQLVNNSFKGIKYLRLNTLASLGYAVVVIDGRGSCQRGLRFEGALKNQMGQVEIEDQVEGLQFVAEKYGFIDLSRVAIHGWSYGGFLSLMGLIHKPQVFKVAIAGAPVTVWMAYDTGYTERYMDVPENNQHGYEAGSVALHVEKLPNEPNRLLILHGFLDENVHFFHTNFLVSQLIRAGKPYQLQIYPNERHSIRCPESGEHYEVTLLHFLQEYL
Procedure, shortened: as §1

Measured: binding result

B1: LZTR1-FLAG (other, human, UniProt Q8N653 1-840, looked up)
chain: MAGPGSTGGQIGAAALAGGARSKVAPSVDFDHSCSDSVEYLTLNFGPFETVHRWRRLPPCDEFVGARRSKHTVVAYKDAIYVFGGDNGKTMLNDLLRFDVKDCSWCRAFTTGTPPAPRYHHSAVVYGSSMFVFGGYTGDIYSNSNLKNKNDLFEYKFATGQWTEWKIEGRLPVARSAHGATVYSDKLWIFAGYDGNARLNDMWTIGLQDRELTCWEEVAQSGEIPPSCCNFPVAVCRDKMFVFSGQSGAKITNNLFQFEFKDKTWTRIPTEHLLRGSPPPPQRRYGHTMVAFDRHLYVFGGAADNTLPNELHCYDVDFQTWEVVQPSSDSEVGGAEVPERACASEEVPTLTYEERVGFKKSRDVFGLDFGTTSAKQPTQPASELPSGRLFHAAAVISDAMYIFGGTVDNNIRSGEMYRFQFSCYPKCTLHEDYGRLWESRQFCDVEFVLGEKEECVQGHVAIVTARSRWLRRKITQARERLAQKLEQEAAPVPREAPGVAAGGARPPLLHVAIREAEARPFEVLMQFLYTDKIKYPRKGHVEDVLLIMDVYKLALSFQLCRLEQLCRQYIEASVDLQNVLVVCESAARLQLSQLKEHCLNFVVKESHFNQVIMMKEFERLSSPLIVEIVRRKQQPPPRTPLDQPVDIGTSLIQDMKAYLEGAGAEFCDITLLLDGHPRPAHKAILAARSSYFEAMFRSFMPEDGQVNISIGEMVPSRQAFESMLRYIYYGEVNMPPEDSLYLFAAPYYYGFYNNRLQAYCKQNLEMNVTVQNVLQILEAADKTQALDMKRHCLHIIVHQFTKVSKLPTLRSLSQQLLLDIIDSLASHISDKQCAELGADI
notes: Expressed in HEK 293T, HeLa or U87 cells; used as cell lysate; also called LZTR1 wild type-FLAG; LZTR1 WT; not shown: FLAG tag at the C-terminus
binds: [1] | [2] | [3]
